To fix the notation:
T1: Boi2 SH3 (BOI2_YEAST), P39969
T1 chain: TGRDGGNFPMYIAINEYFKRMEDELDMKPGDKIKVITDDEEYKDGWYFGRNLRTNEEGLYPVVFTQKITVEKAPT

T2: Boi1 SH3 (BOI1_YEAST), P38041
T2 chain: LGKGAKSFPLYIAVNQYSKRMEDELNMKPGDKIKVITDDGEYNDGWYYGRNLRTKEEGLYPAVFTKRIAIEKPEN

T3: Rvs167 SH3 (RV167_YEAST), P39743
T3 chain: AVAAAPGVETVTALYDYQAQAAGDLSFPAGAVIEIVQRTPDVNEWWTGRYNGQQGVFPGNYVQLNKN

T4: Yfr024 SH3 (LSB3_YEAST), P43603
T4 chain: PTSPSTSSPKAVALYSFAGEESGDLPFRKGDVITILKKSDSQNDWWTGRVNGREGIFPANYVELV

T5: Yhr016c SH3 (YSC84_YEAST), P32793
T5 chain: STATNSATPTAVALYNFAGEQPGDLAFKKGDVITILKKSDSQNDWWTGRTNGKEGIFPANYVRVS

Experimental findings from paper PMC314469, “Protein Interaction Networks by Proteome Peptide Scanning” (PLoS Biology, 2004) are described below.

For one test, the target named is T1, Boi2 SH3 (BOI2_YEAST), P39969. The experiment in a line: SPOT array.
For the molecule TSAPDIPPRSPNRN [YDR239C 54-67], the normalised SPOT signal, Boehringer light units (BLU); mean over the file's lines of this peptide amounted to 35900.

TSTPPLPRRRATTS [YGL181W 247-260] registered a normalised SPOT signal, Boehringer light units (BLU); mean over the file's lines of this peptide of 1870.

TRRPHHPLKQQSTN [YIL152W 34-47] returned a normalised SPOT signal, Boehringer light units (BLU); mean over the file's lines of this peptide of 26.4.

TSSPPLPPRQNVAT [YPL249C 279-292]: the normalised SPOT signal, Boehringer light units (BLU); mean over the file's lines of this peptide was determined as 30.4.

As to TPPPVEPLKTKDLA [YBR284W 102-115], the normalised SPOT signal, Boehringer light units (BLU); mean over the file's lines of this peptide is 43.4.

For TQAPLAPSRNQENE [YPR055W 308-321], the normalised SPOT signal, Boehringer light units (BLU); mean over the file's lines of this peptide came to 4.1.

In the case of TRRPTNPFRVISVS [YNL166C 314-327], the normalised SPOT signal, Boehringer light units (BLU); mean over the file's lines of this peptide worked out at 49.

TSKPSLPEKPQKLR [YPR171W 333-346] returned a normalised SPOT signal, Boehringer light units (BLU); mean over the file's lines of this peptide of 19.2.

The next test deals with T2, Boi1 SH3 (BOI1_YEAST), P38041. As to the kind of experiment: SPOT array.
For TSAPDIPPRSPNRN [YDR239C 54-67], the normalised SPOT signal, Boehringer light units (BLU); mean over the file's lines of this peptide was 65600.

Turning to TSTPPLPRRRATTS [YGL181W 247-260], the normalised SPOT signal, Boehringer light units (BLU); mean over the file's lines of this peptide was 16400.

The molecule TRRPHHPLKQQSTN [YIL152W 34-47] yielded a normalised SPOT signal, Boehringer light units (BLU); mean over the file's lines of this peptide of 87.5.

For TSSPPLPPRQNVAT [YPL249C 279-292], the normalised SPOT signal, Boehringer light units (BLU); mean over the file's lines of this peptide came to 37.2.

TPPPVEPLKTKDLA [YBR284W 102-115] came in with a normalised SPOT signal, Boehringer light units (BLU); mean over the file's lines of this peptide of 94.4.

Molecule TQAPLAPSRNQENE [YPR055W 308-321] had a normalised SPOT signal, Boehringer light units (BLU); mean over the file's lines of this peptide of 31.7.

The molecule TRRPTNPFRVISVS [YNL166C 314-327] yielded a normalised SPOT signal, Boehringer light units (BLU); mean over the file's lines of this peptide of 34.6.

TSKPSLPEKPQKLR [YPR171W 333-346] showed a normalised SPOT signal, Boehringer light units (BLU); mean over the file's lines of this peptide of 252.

A further test has as its target T3, Rvs167 SH3 (RV167_YEAST), P39743. The experiment in a line: SPOT array.
For TSAPDIPPRSPNRN [YDR239C 54-67], the normalised SPOT signal, Boehringer light units (BLU); mean over the file's lines of this peptide was determined as 26700.

TSTPPLPRRRATTS [YGL181W 247-260] returned a normalised SPOT signal, Boehringer light units (BLU); mean over the file's lines of this peptide of 55700.

On to TRRPHHPLKQQSTN [YIL152W 34-47], for which the normalised SPOT signal, Boehringer light units (BLU); mean over the file's lines of this peptide was determined as 70.4.

As to TSSPPLPPRQNVAT [YPL249C 279-292], the normalised SPOT signal, Boehringer light units (BLU); mean over the file's lines of this peptide is 16700.

Take TPPPVEPLKTKDLA [YBR284W 102-115]: the normalised SPOT signal, Boehringer light units (BLU); mean over the file's lines of this peptide came out at 56.7.

For TQAPLAPSRNQENE [YPR055W 308-321], the normalised SPOT signal, Boehringer light units (BLU); mean over the file's lines of this peptide is 38.

In turn, TRRPTNPFRVISVS [YNL166C 314-327] had a normalised SPOT signal, Boehringer light units (BLU); mean over the file's lines of this peptide of 218.

Molecule TSKPSLPEKPQKLR [YPR171W 333-346] yielded a normalised SPOT signal, Boehringer light units (BLU); mean over the file's lines of this peptide of 63.1.

For the next test, the target named is T4, Yfr024 SH3 (LSB3_YEAST), P43603. As to the kind of experiment: SPOT array.
The molecule TSAPDIPPRSPNRN [YDR239C 54-67] came in with a normalised SPOT signal, Boehringer light units (BLU); mean over the file's lines of this peptide of 14500.

Molecule TSTPPLPRRRATTS [YGL181W 247-260] came in with a normalised SPOT signal, Boehringer light units (BLU); mean over the file's lines of this peptide of 36200.

TRRPHHPLKQQSTN [YIL152W 34-47]: the normalised SPOT signal, Boehringer light units (BLU); mean over the file's lines of this peptide came to 411.

As to TSSPPLPPRQNVAT [YPL249C 279-292], the normalised SPOT signal, Boehringer light units (BLU); mean over the file's lines of this peptide amounted to 25300.

With TPPPVEPLKTKDLA [YBR284W 102-115], the normalised SPOT signal, Boehringer light units (BLU); mean over the file's lines of this peptide amounted to 36.2.

As to TQAPLAPSRNQENE [YPR055W 308-321], the normalised SPOT signal, Boehringer light units (BLU); mean over the file's lines of this peptide is 1200.

For the molecule TRRPTNPFRVISVS [YNL166C 314-327], the normalised SPOT signal, Boehringer light units (BLU); mean over the file's lines of this peptide came out at 1890.

TSKPSLPEKPQKLR [YPR171W 333-346] showed a normalised SPOT signal, Boehringer light units (BLU); mean over the file's lines of this peptide of 11600.

A further test has as its target T5, Yhr016c SH3 (YSC84_YEAST), P32793. As to the kind of experiment: SPOT array.
Regarding TSAPDIPPRSPNRN [YDR239C 54-67], the normalised SPOT signal, Boehringer light units (BLU); mean over the file's lines of this peptide is 14800.

For TSTPPLPRRRATTS [YGL181W 247-260], the normalised SPOT signal, Boehringer light units (BLU); mean over the file's lines of this peptide was found to be 122000.

TRRPHHPLKQQSTN [YIL152W 34-47] came in with a normalised SPOT signal, Boehringer light units (BLU); mean over the file's lines of this peptide of 154.

Turning to TSSPPLPPRQNVAT [YPL249C 279-292], the normalised SPOT signal, Boehringer light units (BLU); mean over the file's lines of this peptide came to 47000.

The molecule TPPPVEPLKTKDLA [YBR284W 102-115] had a normalised SPOT signal, Boehringer light units (BLU); mean over the file's lines of this peptide of 146.

Consider TQAPLAPSRNQENE [YPR055W 308-321], for which the normalised SPOT signal, Boehringer light units (BLU); mean over the file's lines of this peptide amounted to 624.

The molecule TRRPTNPFRVISVS [YNL166C 314-327] yielded a normalised SPOT signal, Boehringer light units (BLU); mean over the file's lines of this peptide of 566.

With TSKPSLPEKPQKLR [YPR171W 333-346], the normalised SPOT signal, Boehringer light units (BLU); mean over the file's lines of this peptide is 319.
